Data: patent publication US20260001928A1 (CORTERIA PHARMACEUTICALS, priority 2022, published 2026)
*1 amine or outer side, *2 acyl side, *3 side chain or, on linkers, in order; H or OH if unused. Where no end group is shown, it is not given here. Side-chain parts run from the residue outwards. [ ]: non-standard residue; d: D form. The star is where a group is joined. C16 diacid = O=C(O)CCCCCCCCCCCCCCC(=O)*; γGlu = O=C(O)[C@H](CCC(=O)[*:2])N[*:1]; NMeV = CN[C@H](C(=O)O)C(C)C; Decanoyl = CCCCCCCCCC(=O)*; Api = NC1(C(=O)O)CCNCC1; Pentanoyl = CCCCC(=O)*; Aib = CC(C)(N)C(=O)O

T1: CRF1R receptor (UniProt P34998 24-415, limits assumed)
T1 sequence (looked up): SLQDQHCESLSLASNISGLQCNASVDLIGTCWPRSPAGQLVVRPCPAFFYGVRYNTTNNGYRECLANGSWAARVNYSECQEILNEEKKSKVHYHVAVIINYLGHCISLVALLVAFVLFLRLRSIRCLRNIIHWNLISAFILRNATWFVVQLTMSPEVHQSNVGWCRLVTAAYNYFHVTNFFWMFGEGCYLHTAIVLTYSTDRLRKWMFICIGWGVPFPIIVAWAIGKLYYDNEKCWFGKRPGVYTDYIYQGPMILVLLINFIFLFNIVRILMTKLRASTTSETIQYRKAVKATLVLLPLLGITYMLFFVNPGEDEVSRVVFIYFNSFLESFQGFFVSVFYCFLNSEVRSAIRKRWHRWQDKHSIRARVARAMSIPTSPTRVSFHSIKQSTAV


Columns and labels:
CRF1R receptor = target: T1, CRF1R receptor; assay: cell-based or functional assay
[1] = target: human corticotropin-releasing factor 2a (CRF2a receptor) (human), Q13324; assay: cell-based or functional assay
Sequence of human corticotropin-releasing factor 2a (CRF2a receptor) (human), Q13324 (Q13324 20-411): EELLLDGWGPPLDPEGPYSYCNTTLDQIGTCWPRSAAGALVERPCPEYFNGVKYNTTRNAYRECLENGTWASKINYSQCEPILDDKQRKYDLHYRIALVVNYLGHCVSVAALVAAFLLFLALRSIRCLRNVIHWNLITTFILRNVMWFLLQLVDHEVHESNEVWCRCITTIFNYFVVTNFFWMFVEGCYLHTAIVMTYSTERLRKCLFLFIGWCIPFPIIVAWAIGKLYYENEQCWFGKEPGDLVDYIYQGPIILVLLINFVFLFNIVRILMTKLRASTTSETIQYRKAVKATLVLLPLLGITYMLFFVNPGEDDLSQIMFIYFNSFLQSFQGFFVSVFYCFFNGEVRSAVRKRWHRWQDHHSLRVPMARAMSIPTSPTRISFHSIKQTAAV

Emax (% I) (CRF1R receptor)	EC50 [nM] (cAMP) [1]	EC50 (CRF1R receptor)	Binder
53%	0.3 nM	190 nM	Ac-IVLSLD[dV]PIALK([γGlu-C16 diacid])KILLEQEKQKKQREQAETN[Aib]QILAQV-NH2 (SMILES CC[C@H](C)[C@H](NC(C)=O)C(=O)N[C@H](C(=O)N[C@@H](CC(C)C)C(=O)N[C@@H](CO)C(=O)N[C@@H](CC(C)C)C(=O)N[C@@H](CC(=O)O)C(=O)N[C@@H](C(=O)N1CCC[C@H]1C(=O)N[C@H](C(=O)N[C@@H](C)C(=O)N[C@@H](CC(C)C)C(=O)N[C@@H](CCCCNC(=O)CC[C@H](NC(=O)CCCCCCCCCCCCCCC(=O)O)C(=O)O)C(=O)N[C@@H](CCCCN)C(=O)N[C@H](C(=O)N[C@@H](CC(C)C)C(=O)N[C@@H](CC(C)C)C(=O)N[C@@H](CCC(=O)O)C(=O)N[C@@H](CCC(N)=O)C(=O)N[C@@H](CCC(=O)O)C(=O)N[C@@H](CCCCN)C(=O)N[C@@H](CCC(N)=O)C(=O)N[C@@H](CCCCN)C(=O)N[C@@H](CCCCN)C(=O)N[C@@H](CCC(N)=O)C(=O)N[C@@H](CCCNC(=N)N)C(=O)N[C@@H](CCC(=O)O)C(=O)N[C@@H](CCC(N)=O)C(=O)N[C@@H](C)C(=O)N[C@@H](CCC(=O)O)C(=O)N[C@H](C(=O)N[C@@H](CC(N)=O)C(=O)NC(C)(C)C(=O)N[C@@H](CCC(N)=O)C(=O)N[C@H](C(=O)N[C@@H](CC(C)C)C(=O)N[C@@H](C)C(=O)N[C@@H](CCC(N)=O)C(=O)N[C@H](C(N)=O)C(C)C)[C@@H](C)CC)[C@@H](C)O)[C@@H](C)CC)[C@@H](C)CC)C(C)C)C(C)C) [SEQ ID NO 163]
54%	0.04 nM	98.7 nM	Decanoyl-VLSLD[dV]PIKLK([γGlu-C16 diacid])KILLEQEKQKKQREQAETN[Aib]QILAQV-NH2 (SMILES CCCCCCCCCC(=O)N[C@H](C(=O)N[C@@H](CC(C)C)C(=O)N[C@@H](CO)C(=O)N[C@@H](CC(C)C)C(=O)N[C@@H](CC(=O)O)C(=O)N[C@@H](C(=O)N1CCC[C@H]1C(=O)N[C@H](C(=O)N[C@@H](CCCCN)C(=O)N[C@@H](CC(C)C)C(=O)N[C@@H](CCCCNC(=O)CC[C@H](NC(=O)CCCCCCCCCCCCCCC(=O)O)C(=O)O)C(=O)N[C@@H](CCCCN)C(=O)N[C@H](C(=O)N[C@@H](CC(C)C)C(=O)N[C@@H](CC(C)C)C(=O)N[C@@H](CCC(=O)O)C(=O)N[C@@H](CCC(N)=O)C(=O)N[C@@H](CCC(=O)O)C(=O)N[C@@H](CCCCN)C(=O)N[C@@H](CCC(N)=O)C(=O)N[C@@H](CCCCN)C(=O)N[C@@H](CCCCN)C(=O)N[C@@H](CCC(N)=O)C(=O)N[C@@H](CCCNC(=N)N)C(=O)N[C@@H](CCC(=O)O)C(=O)N[C@@H](CCC(N)=O)C(=O)N[C@@H](C)C(=O)N[C@@H](CCC(=O)O)C(=O)N[C@H](C(=O)N[C@@H](CC(N)=O)C(=O)NC(C)(C)C(=O)N[C@@H](CCC(N)=O)C(=O)N[C@H](C(=O)N[C@@H](CC(C)C)C(=O)N[C@@H](C)C(=O)N[C@@H](CCC(N)=O)C(=O)N[C@H](C(N)=O)C(C)C)[C@@H](C)CC)[C@@H](C)O)[C@@H](C)CC)[C@@H](C)CC)C(C)C)C(C)C) [SEQ ID NO 158]
3%	0.32 nM		Ac-IVLSLD[dV]PIKLK([γGlu-C16 diacid])KILLEQEKQKAQREQAETN[Aib]QILAQV-NH2 (SMILES CC[C@H](C)[C@H](NC(C)=O)C(=O)N[C@H](C(=O)N[C@@H](CC(C)C)C(=O)N[C@@H](CO)C(=O)N[C@@H](CC(C)C)C(=O)N[C@@H](CC(=O)O)C(=O)N[C@@H](C(=O)N1CCC[C@H]1C(=O)N[C@H](C(=O)N[C@@H](CCCCN)C(=O)N[C@@H](CC(C)C)C(=O)N[C@@H](CCCCNC(=O)CC[C@H](NC(=O)CCCCCCCCCCCCCCC(=O)O)C(=O)O)C(=O)N[C@@H](CCCCN)C(=O)N[C@H](C(=O)N[C@@H](CC(C)C)C(=O)N[C@@H](CC(C)C)C(=O)N[C@@H](CCC(=O)O)C(=O)N[C@@H](CCC(N)=O)C(=O)N[C@@H](CCC(=O)O)C(=O)N[C@@H](CCCCN)C(=O)N[C@@H](CCC(N)=O)C(=O)N[C@@H](CCCCN)C(=O)N[C@@H](C)C(=O)N[C@@H](CCC(N)=O)C(=O)N[C@@H](CCCNC(=N)N)C(=O)N[C@@H](CCC(=O)O)C(=O)N[C@@H](CCC(N)=O)C(=O)N[C@@H](C)C(=O)N[C@@H](CCC(=O)O)C(=O)N[C@H](C(=O)N[C@@H](CC(N)=O)C(=O)NC(C)(C)C(=O)N[C@@H](CCC(N)=O)C(=O)N[C@H](C(=O)N[C@@H](CC(C)C)C(=O)N[C@@H](C)C(=O)N[C@@H](CCC(N)=O)C(=O)N[C@H](C(N)=O)C(C)C)[C@@H](C)CC)[C@@H](C)O)[C@@H](C)CC)[C@@H](C)CC)C(C)C)C(C)C) [SEQ ID NO 161]

More lines, now with the values behind:

Binder	Emax (% I) (CRF1R receptor)	EC50 [nM] (cAMP) [1]	EC50 (CRF1R receptor)
[NMeV]LSLD[dV]PIKLK([γGlu-C16 diacid])KILLEQEKQKKQREQAETN[Aib]QILAQV-NH2 (N-terminus assumed; SMILES CC[C@H](C)[C@H](NC(=O)[C@H](CCC(N)=O)NC(=O)C(C)(C)NC(=O)[C@H](CC(N)=O)NC(=O)[C@@H](NC(=O)[C@H](CCC(=O)O)NC(=O)[C@H](C)NC(=O)[C@H](CCC(N)=O)NC(=O)[C@H](CCC(=O)O)NC(=O)[C@H](CCCNC(=N)N)NC(=O)[C@H](CCC(N)=O)NC(=O)[C@H](CCCCN)NC(=O)[C@H](CCCCN)NC(=O)[C@H](CCC(N)=O)NC(=O)[C@H](CCCCN)NC(=O)[C@H](CCC(=O)O)NC(=O)[C@H](CCC(N)=O)NC(=O)[C@H](CCC(=O)O)NC(=O)[C@H](CC(C)C)NC(=O)[C@H](CC(C)C)NC(=O)[C@@H](NC(=O)[C@H](CCCCN)NC(=O)[C@H](CCCCNC(=O)CC[C@H](NC(=O)CCCCCCCCCCCCCCC(=O)O)C(=O)O)NC(=O)[C@H](CC(C)C)NC(=O)[C@H](CCCCN)NC(=O)[C@@H](NC(=O)[C@@H]1CCCN1C(=O)[C@H](NC(=O)[C@H](CC(=O)O)NC(=O)[C@H](CC(C)C)NC(=O)[C@H](CO)NC(=O)[C@H](CC(C)C)NC(=O)[C@@H](NC)C(C)C)C(C)C)[C@@H](C)CC)[C@@H](C)CC)[C@@H](C)O)C(=O)N[C@@H](CC(C)C)C(=O)N[C@@H](C)C(=O)N[C@@H](CCC(N)=O)C(=O)N[C@H](C(N)=O)C(C)C) [SEQ ID NO 159]	4%	2.97 nM	
Pentanoyl-VLSLD[dV]PIKLK([γGlu-C16 diacid])QILLKQERQKKQREQAEKNKQILEQV-NH2 (SMILES CCCCC(=O)N[C@H](C(=O)N[C@@H](CC(C)C)C(=O)N[C@@H](CO)C(=O)N[C@@H](CC(C)C)C(=O)N[C@@H](CC(=O)O)C(=O)N[C@@H](C(=O)N1CCC[C@H]1C(=O)N[C@H](C(=O)N[C@@H](CCCCN)C(=O)N[C@@H](CC(C)C)C(=O)N[C@@H](CCCCNC(=O)CC[C@H](NC(=O)CCCCCCCCCCCCCCC(=O)O)C(=O)O)C(=O)N[C@@H](CCC(N)=O)C(=O)N[C@H](C(=O)N[C@@H](CC(C)C)C(=O)N[C@@H](CC(C)C)C(=O)N[C@@H](CCCCN)C(=O)N[C@@H](CCC(N)=O)C(=O)N[C@@H](CCC(=O)O)C(=O)N[C@@H](CCCNC(=N)N)C(=O)N[C@@H](CCC(N)=O)C(=O)N[C@@H](CCCCN)C(=O)N[C@@H](CCCCN)C(=O)N[C@@H](CCC(N)=O)C(=O)N[C@@H](CCCNC(=N)N)C(=O)N[C@@H](CCC(=O)O)C(=O)N[C@@H](CCC(N)=O)C(=O)N[C@@H](C)C(=O)N[C@@H](CCC(=O)O)C(=O)N[C@@H](CCCCN)C(=O)N[C@@H](CC(N)=O)C(=O)N[C@@H](CCCCN)C(=O)N[C@@H](CCC(N)=O)C(=O)N[C@H](C(=O)N[C@@H](CC(C)C)C(=O)N[C@@H](CCC(=O)O)C(=O)N[C@@H](CCC(N)=O)C(=O)N[C@H](C(N)=O)C(C)C)[C@@H](C)CC)[C@@H](C)CC)[C@@H](C)CC)C(C)C)C(C)C) [SEQ ID NO 8]	50%	0.14 nM	186 nM
[NMeV]LSLD[dV]PIKLK([γGlu-C16 diacid])KILLEQEKQKKQREQAETN[Api]QILAQV-NH2 (N-terminus assumed; SMILES CC[C@H](C)[C@H](NC(=O)[C@H](CCC(N)=O)NC(=O)C1(NC(=O)[C@H](CC(N)=O)NC(=O)[C@@H](NC(=O)[C@H](CCC(=O)O)NC(=O)[C@H](C)NC(=O)[C@H](CCC(N)=O)NC(=O)[C@H](CCC(=O)O)NC(=O)[C@H](CCCNC(=N)N)NC(=O)[C@H](CCC(N)=O)NC(=O)[C@H](CCCCN)NC(=O)[C@H](CCCCN)NC(=O)[C@H](CCC(N)=O)NC(=O)[C@H](CCCCN)NC(=O)[C@H](CCC(=O)O)NC(=O)[C@H](CCC(N)=O)NC(=O)[C@H](CCC(=O)O)NC(=O)[C@H](CC(C)C)NC(=O)[C@H](CC(C)C)NC(=O)[C@@H](NC(=O)[C@H](CCCCN)NC(=O)[C@H](CCCCNC(=O)CC[C@H](NC(=O)CCCCCCCCCCCCCCC(=O)O)C(=O)O)NC(=O)[C@H](CC(C)C)NC(=O)[C@H](CCCCN)NC(=O)[C@@H](NC(=O)[C@@H]2CCCN2C(=O)[C@H](NC(=O)[C@H](CC(=O)O)NC(=O)[C@H](CC(C)C)NC(=O)[C@H](CO)NC(=O)[C@H](CC(C)C)NC(=O)[C@@H](NC)C(C)C)C(C)C)[C@@H](C)CC)[C@@H](C)CC)[C@@H](C)O)CCNCC1)C(=O)N[C@@H](CC(C)C)C(=O)N[C@@H](C)C(=O)N[C@@H](CCC(N)=O)C(=O)N[C@H](C(N)=O)C(C)C) [SEQ ID NO 160]	2%	2.08 nM	
Ac-IVLSLD[dV]PIKLK([γGlu-C16 diacid])KILLEQEKQK[Aib]QREQAETN[Aib]QILAQV-NH2 [SEQ ID NO 162]	0%	0.49 nM	
